Tests used:
NgBR-HA = target: T1, NgBR-HA (Homo sapiens, UniProt Q96E22); assay: Immunoisolation of NgBR-HA from CHO cell extracts incubated with purified Am-Nogo-B, Western blot; type: binding; conditions: lysates of vector or NgBR-HA-transfected CHO cells, 25 μg Am-Nogo-B-myc
T1 construct: CHO cells stably expressing full-length NgBR with a C-terminal HA tag (CHO-NgBR-HA); expressed in transfected cells; host or cells: CHO
T1 sequence (Q96E22 1-293): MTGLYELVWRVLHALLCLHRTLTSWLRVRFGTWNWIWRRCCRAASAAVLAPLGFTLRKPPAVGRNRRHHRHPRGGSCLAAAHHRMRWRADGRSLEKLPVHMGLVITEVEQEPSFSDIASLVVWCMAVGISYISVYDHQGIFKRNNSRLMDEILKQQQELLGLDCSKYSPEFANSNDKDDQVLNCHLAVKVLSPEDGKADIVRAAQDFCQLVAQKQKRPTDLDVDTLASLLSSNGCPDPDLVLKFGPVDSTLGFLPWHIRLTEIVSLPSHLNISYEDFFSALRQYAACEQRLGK
Protocol: Single NgBR cDNA clones were isolated by sib selection and sequenced. A NgBR-HA was created in pIRESneo vector (BD, Palo Alto, Calif.), with the HA tag at the carboxy terminus. To access the physical interaction of NgBR with Am-Nogo-B, 50 μg of solubilized extracts of CHO cells expressing control vector (pIRESneo) or NgBR-HA was incubated with 25 μg of purified Am-Nogo-B or buffer for 2 hours at room temperature. The HA-tagged NgBR was immunoisolated with anti-HA immunobeads (Roche, Indianapolis, Ind.) and associated proteins analyzed by Western blotting. For the Western blots, expression of NgBR-HA was detected by using anti-HA (Roche) and NgBR (Imgenex), respectively, and beta-actin (Sigma) or Hsp90 (BD Biosciences-Pharmingen) was used to control for loading.

NgBR [1] = target: T2, NgBR (Homo sapiens, UniProt Q96E22); assay: AP fusion protein binding to COS cells transfected with the isolated NgBR cDNA; design: an isolated cDNA encoding NgBR is 2,636 base pairs encoding an open reading frame of 293 amino acids; expressed in transfected cells; host or cells: COS-7 (A4); conditions: COS cells (FIG. 6)
T2 sequence (Q96E22 1-293): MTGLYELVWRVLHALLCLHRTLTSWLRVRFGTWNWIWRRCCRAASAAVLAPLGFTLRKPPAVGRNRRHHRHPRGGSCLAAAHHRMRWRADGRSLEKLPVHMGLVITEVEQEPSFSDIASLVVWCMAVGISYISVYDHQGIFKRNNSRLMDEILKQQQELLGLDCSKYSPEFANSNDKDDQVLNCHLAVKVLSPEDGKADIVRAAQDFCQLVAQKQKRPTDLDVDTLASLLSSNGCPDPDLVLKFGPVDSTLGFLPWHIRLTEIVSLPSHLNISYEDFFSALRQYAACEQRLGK
Protocol: (§1) To detect AP-Am-Nogo-B binding, cultures were washed with Hanks' balanced salt solution (HBSS) containing 20 mM HEPES, pH 7.5, and 1 mg/mL BSA (HBH). The plates were then incubated with AP-Am-Nogo-B in DMEM containing 20 mM Hepes, pH 7.5, and 1 mg/mL BSA for 2 hours at 4° C. The bound AP-Am-Nogo-B was detected by using the Blue Substrate kit (Vector Laboratories). The blue staining was examined by using the ODYSSEY Infrared Imaging System (Li-Cor, Lincoln, Nebr.) and confirmed by microscopy. Alternatively, the bound AP-Am-Nogo-B was extracted with Triton X-100, and AP activity was colorimetrically quantified by using p-nitrophenyl phosphate (Sigma) as substrate after heat inactivation of endogenous AP. Non-specific binding was determined by measuring binding in the presence of a 100-fold molar excess of recombinant Am-Nogo-B lacking the AP fusion protein. Specific binding was determined by subtracting the non-specific binding from total binding. For determination of apparent Kd, the binding of AP-Am-Nogo-B was measured in triplicate as described above and the Kd value was quantified by using the Scatchard plot program of GraphPad PRISM (one-site binding, linear regression) using the ratio of bound ligand to free ligand as the y axis and bound ligand (pM) as the x axis.
For expression cloning of Am-Nogo-B receptor, pools of 5,000 arrayed clones from a human heart cDNA library (OriGene Technologies, Rockville, Md.) were transfected into COS-7 cells, and AP-Am-Nogo-B binding was assessed by using AP versus AP-Am-Nogo-B binding and detection of the AP product by near-infrared cell imaging (Li-Cor, Lincoln, Nebr.) or AP activity assays.
Single NgBR cDNA clones were isolated by sib selection and sequenced. […] The HA-tagged NgBR was immunoisolated with anti-HA immunobeads (Roche, Indianapolis, Ind.) and associated proteins analyzed by Western blotting. For the Western blots, expression of NgBR-HA was detected by using anti-HA (Roche) and NgBR (Imgenex), respectively, and beta-actin (Sigma) or Hsp90 (BD Biosciences-Pharmingen) was used to control for loading.

NgBR [2] = target: T2, NgBR; assay: AP fusion protein binding to CHO cells expressing NgBR; design: an isolated cDNA encoding NgBR is 2,636 base pairs encoding an open reading frame of 293 amino acids; expressed in transfected cells; conditions: increasing concentrations of purified Am-Nogo-B
Protocol: as §1
A recombinant AP-Am-Nogo-B fusion protein was used to screen a cDNA expression library from human heart (500,000 independent clones) transfected into COS or CHO cells using Lipofectamine 2000 (Invitrogen). COS-7 cells were cultured in high-glucose DMEM with 10% FBS. CHO cells were cultured in MEM-α with 5% FBS.

[3] = tested on: CHO cells expressing NgBR; assay: Chemotaxis of CHO cells and CHO cells expressing NgBR in a Boyden chamber; type: cell-based; conditions: CHO cells versus CHO cells expressing NgBR
Protocol: (§2) Cell migration was examined in modified Boyden chambers using 10 nM each of purified recombinant AP, AP fusion of Nogo-66 (AP-Nogo-66) or Am-Nogo-B. The transwell inserts (Costar transwell inserts; Corning) were coated with a solution of 0.1% gelatin (Sigma) in PBS at 4° C. overnight and then air-dried. VEGF at 50 ng/mL (1.1 nM) or recombinant Am-Nogo-B at various concentrations dissolved in medium 199 containing 0.1% BSA was added in the bottom chamber of the Boyden apparatus. HUVEC (200,000 cells) suspended in a 100 μL aliquot of medium 199 containing 0.1% BSA was added to the upper chamber. After 5 hours incubation, cells on both sides of the membrane were fixed and stained with a Diff-Quik staining kit (Baxter Healthcare, Miami, Fla.). The average number of cells from five randomly chosen high-power (×400) fields on the lower side of the membrane was counted.
Using the method described above, CHO cells and CHO cells expressing NgBR were placed into a Boyden chamber and the chemotactic response to soluble Am-Nogo-B was examined.

HUVEC [4] = assay: HUVEC migration in modified Boyden chambers; type: cell-based, human; conditions: recombinant Am-Nogo-B at various concentrations, 5 hours; similar in magnitude to 1.1 nM VEGF
Protocol: The migratory response of human umbilical vein endothelial cells (HUVEC) in response to a gradient of recombinant, purified alkaline phosphatase (AP) fusion protein expressing Am-Nogo-B or a recombinant purified Am-Nogo-B was examined. HUVEC were cultured in M199 with 20% FBS and endothelial cell growth supplement (ECGS).
as §2

A549 cells [5] = assay: Tumors of A549 cells engineered to secrete Am-Nogo-B in immunodeficient mice; type: in vivo
HUVEC [6] = assay: Tube formation of HUVEC in 3-D collagen cultures (total network length); type: cell-based, human; conditions: Am-Nogo-B 80 nM, 1-2 days
Protocol: HUVEC were resuspended (final concentration of 1×10^6) in a mixture containing rat tail type I collagen (1.5 mg/mL) 1/10 volume of 10×M199 and 1 M Hepes, neutralized with NaOH. Droplets (0.1 mL each) of the cell/collagen mixture were placed in cell culture dishes and allowed to polymerize for 15 minutes at 37° C. Growth medium containing either vehicle or agonist was then added to each well. HUVEC were allowed to form tube-like structures for 1-2 days. To evaluate tube formation in 3-D cultures, cells were photographed using the program OPENLAB (Improvision) and total-network length, defined as an elongation of cell into tube-like structures typically seen in 3-D cultures, was quantified in five fields for each replicate per experiment by using the measurement tools provided with OPENLAB.

A549 cells [7] = assay: Growth in culture of A549 cells engineered to secrete Am-Nogo-B; type: cell-based, human; conditions: A549 cells secreting Am-Nogo-B versus vector control
Text: Human A549 cells were stably transfected with vector alone (control) or a vector encoding a secreted form of Am-Nogo-B. The production of Am-Nogo-B and the effects on A549 cell growth in culture were examined.

[8] = A549 tumors expressing Am-Nogo-B

B1: Am-Nogo-B: Residues 1-200 of Nogo-B, the amino terminus; recombinant, purified, with Myc-His tag (protein)
chain: MEDLDQSPLVSSSDSPPRPQPAFKYQFVREPEDEEEEEEEEEEDEDEDLEELEVLERKPAAGLSAAPVPTAPAAGAPLMDFGNDFVPPAPRGPLPAAPPVAPERQPSWDPSPVSSTVPAPSPLSAAAVSPSKLPEDDEPPARPPPPPPASVSPQAEPVWTPPAPAPAAPPSTPAAPKRRGSSGSVVVDLLYWRDIKKTGV
modifications: left off: small tags and cut ends
notes: Residues 1-200 of Nogo-B, the amino terminus; recombinant, purified, with Myc-His tag
- physical interaction with NgBR-HA (immunopurification) (NgBR-HA): interacted with lysates only when the receptor was expressed
- binding to COS cells transfected with the isolated NgBR cDNA (NgBR [1]): afforded the binding
- displacement of the binding of 10 nM AP-Am-Nogo-B from transfected CHO cells (NgBR [2]): dose-dependently displaced
- chemotactic response to soluble Am-Nogo-B [3]: transfection of NgBR was required
- HUVEC migration, dose dependence (HUVEC [4]): dose-dependently increases migration
- growth rate of tumors in vivo (A549 cells [5]; A549 cells secreting Am-Nogo-B versus vector control, immunodeficient mice): increased the growth rate of tumors
- lymphangiogenesis (LYVE-1 staining) (A549 cells [5]; [8]): reduced lymphangiogenesis
- tumor angiogenesis (PECAM-1-positive tumor cells) (A549 cells [5]; [8]): increased angiogenesis
- tumor associated macrophages (F4/80 positive cells) (A549 cells [5]; [8]): increase tumor associated macrophages
- tube formation (HUVEC [6]): stimulated an increase in tube formation
- basal growth of A549 cells in culture (A549 cells [7]): did not effect the basal growth
